pKd: −log10 of the molar value.
Molecular target: bat RaTG13 spike (S) glycoprotein ectodomain (bat coronavirus RaTG13)
Assay: BLI

human ACE2 ectodomain (residues 19-615), sequence (Q9BYF1 19-615): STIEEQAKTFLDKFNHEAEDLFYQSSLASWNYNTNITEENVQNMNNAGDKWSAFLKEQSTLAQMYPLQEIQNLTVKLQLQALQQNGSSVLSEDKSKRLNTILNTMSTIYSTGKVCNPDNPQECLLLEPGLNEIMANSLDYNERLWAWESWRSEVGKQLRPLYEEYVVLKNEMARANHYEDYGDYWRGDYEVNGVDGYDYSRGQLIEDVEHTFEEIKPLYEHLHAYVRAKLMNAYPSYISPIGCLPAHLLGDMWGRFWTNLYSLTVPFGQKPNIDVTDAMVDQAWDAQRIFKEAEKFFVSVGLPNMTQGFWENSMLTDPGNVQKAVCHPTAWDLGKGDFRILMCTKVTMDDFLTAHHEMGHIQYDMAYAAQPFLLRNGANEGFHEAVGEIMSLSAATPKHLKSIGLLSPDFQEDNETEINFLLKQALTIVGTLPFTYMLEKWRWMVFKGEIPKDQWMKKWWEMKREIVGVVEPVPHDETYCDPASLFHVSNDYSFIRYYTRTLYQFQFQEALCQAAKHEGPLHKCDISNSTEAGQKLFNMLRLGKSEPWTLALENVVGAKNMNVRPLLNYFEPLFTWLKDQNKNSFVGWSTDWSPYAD

Q: How did the pKd turn out when “human ACE2 ectodomain (residues 19-615) (from UniProt Q9BYF1-1 19-615) (receptor)” was run?
A: < 4.40
